# Values quoted from earlier work as cited in paper PMC4030972.
# Target: cholera toxin A1 subunit CtxA1 (Vibrio cholerae) (UniProt P01555)
# Sequence of UniProt P01555 (P01555 19-212): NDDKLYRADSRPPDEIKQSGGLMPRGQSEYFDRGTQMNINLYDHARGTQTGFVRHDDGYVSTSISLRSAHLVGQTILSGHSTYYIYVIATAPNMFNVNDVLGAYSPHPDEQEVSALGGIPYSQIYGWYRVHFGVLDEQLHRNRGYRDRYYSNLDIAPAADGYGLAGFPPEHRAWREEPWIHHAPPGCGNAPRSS
substance,measurement,value
Hsp90 (from UniProt P08238),Kd,7 nM
